Among the data in article PMC5648539 are Ca2+ flux dose response (printed as Kd) and Ca2+ flux response (potency) values, retold here.

This test concerns the target FLAG-tagged human CXCR4, wild type (human) (UniProt P61073).

Sequence of FLAG-tagged human CXCR4, wild type (human) (P61073 whole entry): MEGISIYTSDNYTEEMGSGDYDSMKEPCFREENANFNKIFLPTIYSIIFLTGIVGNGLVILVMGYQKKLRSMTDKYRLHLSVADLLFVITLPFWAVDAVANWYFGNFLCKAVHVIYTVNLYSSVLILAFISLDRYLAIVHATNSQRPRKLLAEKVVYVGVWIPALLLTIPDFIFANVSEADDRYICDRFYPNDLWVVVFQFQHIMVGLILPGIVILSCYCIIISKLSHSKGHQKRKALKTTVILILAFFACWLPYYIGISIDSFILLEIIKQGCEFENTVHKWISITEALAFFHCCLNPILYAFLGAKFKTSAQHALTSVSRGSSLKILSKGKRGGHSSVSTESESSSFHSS

Substance “CXCL12 with Asn33 mutated to glutamic acid (from UniProt P48061-2 22-89) (ligand)” registered a Ca2+ flux dose response (printed as Kd) of 21 nM.
In turn, “CXCL12(R8A) (from UniProt P48061-2 22-89) (ligand)” returned a Ca2+ flux response (potency) of 110 nM.
The substance “CXCL12(R12A) (from UniProt P48061-2 22-89) (ligand)” came in with a Ca2+ flux response (potency) of 95 nM.
